Laboratory results published in IntAct's records for PubMed 26836588.

B1: E3 ubiquitin-protein ligase TRIM22 (Homo sapiens), Q8IYM9 (parent)
chain: MDFSVKVDIEKEVTCPICLELLTEPLSLDCGHSFCQACITAKIKESVIISRGESSCPVCQTRFQPGNLRPNRHLANIVERVKEVKMSPQEGQKRDVCEHHGKKLQIFCKEDGKVICWVCELSQEHQGHQTFRINEVVKECQEKLQVALQRLIKEDQEAEKLEDDIRQERTAWKNYIQIERQKILKGFNEMRVILDNEEQRELQKLEEGEVNVLDNLAAATDQLVQQRQDASTLISDLQRRLRGSSVEMLQDVIDVMKRSESWTLKKPKSVSKKLKSVFRVPDLSGMLQVLKELTDVQYYWVDVMLNPGSATSNVAISVDQRQVKTVRTCTFKNSNPCDFSAFGVFGCQYFSSGKYYWEVDVSGKIAWILGVHSKISSLNKRKSSGFAFDPSVNYSKVYSRYRPQYGYWVIGLQNTCEYNAFEDSSSSDPKVLTLFMAVPPCRIGVFLDYEAGIVSFFNVTNHGALIYKFSGCRFSRPAYPYFNPWNCLVPMTVCPPSS

Variants of: B1
Conditions: with nod2_human NOD2, Q9HC29
Chain of nod2_human NOD2, Q9HC29 (Q9HC29 whole entry): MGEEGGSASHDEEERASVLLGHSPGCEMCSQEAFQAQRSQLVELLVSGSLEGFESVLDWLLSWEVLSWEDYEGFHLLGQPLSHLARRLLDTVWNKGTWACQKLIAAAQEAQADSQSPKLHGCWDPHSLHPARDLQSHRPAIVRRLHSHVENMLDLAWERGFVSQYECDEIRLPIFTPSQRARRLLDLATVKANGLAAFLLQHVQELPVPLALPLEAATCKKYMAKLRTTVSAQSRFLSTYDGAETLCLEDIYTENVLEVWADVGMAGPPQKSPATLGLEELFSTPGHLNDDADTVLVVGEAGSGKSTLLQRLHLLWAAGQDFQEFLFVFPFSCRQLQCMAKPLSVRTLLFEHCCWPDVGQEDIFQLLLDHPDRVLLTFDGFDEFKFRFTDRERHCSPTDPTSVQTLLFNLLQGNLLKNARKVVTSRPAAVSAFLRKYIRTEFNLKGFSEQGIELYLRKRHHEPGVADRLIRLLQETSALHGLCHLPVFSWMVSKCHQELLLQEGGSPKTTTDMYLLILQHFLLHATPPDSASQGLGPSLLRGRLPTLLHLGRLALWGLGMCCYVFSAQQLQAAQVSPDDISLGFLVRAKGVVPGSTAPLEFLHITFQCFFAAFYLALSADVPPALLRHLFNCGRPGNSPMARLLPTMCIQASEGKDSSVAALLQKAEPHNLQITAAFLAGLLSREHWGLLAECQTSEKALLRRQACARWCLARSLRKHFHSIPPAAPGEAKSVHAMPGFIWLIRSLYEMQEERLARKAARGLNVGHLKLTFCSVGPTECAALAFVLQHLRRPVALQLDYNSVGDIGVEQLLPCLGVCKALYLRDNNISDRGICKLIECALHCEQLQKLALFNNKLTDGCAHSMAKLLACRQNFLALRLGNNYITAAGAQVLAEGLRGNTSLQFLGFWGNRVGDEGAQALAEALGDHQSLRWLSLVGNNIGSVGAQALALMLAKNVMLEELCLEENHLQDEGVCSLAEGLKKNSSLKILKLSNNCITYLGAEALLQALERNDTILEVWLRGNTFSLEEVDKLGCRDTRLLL

Variant	effect of a mutation on the interaction
S244L	decreasing interaction strength
R150T	with no effect

Now from value to variant:

effect of a mutation on the interaction	Variant
disrupting interaction strength	R442C
decreasing interaction strength	R321K
